From patent US12139520B2 (priority 2020, dated 2024) come the findings set out here.

B1: SEQ ID NO: 173 (peptide)
peptide: GCRMGTCTVQRLAHQIYQFTDKFKDNVAPRSKISPQT[Hyp]-NH2
modifications: disulfide 2-7 (inferred); ends not checked
B2: SEQ ID NO: 195 (peptide)
peptide: KCNTATCTVQRLAHQIYQTDKDKDNVAPPTNVGSNG[Hyp]-NH2
modifications: disulfide 2-7 (inferred); ends not checked
B3: SEQ ID NO: 198 (peptide)
peptide: GCRIGTCTVQRLAHQIYQFTNKDKDNVAPRSKISPQT[Hyp]-NH2
modifications: disulfide 2-7 (inferred); ends not checked
B4: SEQ ID NO: 185 (peptide)
peptide: GCRTGTCTVQRLAHQIYQFTDKFKDNVAPRSKISPQW[Hyp]-NH2
modifications: disulfide 2-7 (inferred); ends not checked
B5: SEQ ID NO: 175 (peptide)
peptide: GCRFGTCTVQRLAHQIYQFTDKDKDNVAPRSKVSPNG[Hyp]-NH2
modifications: disulfide 2-7 (inferred); ends not checked
B6: SEQ ID NO: 192 (peptide)
peptide: GCRMGTCTVQRLAHQIYQFTNKDKDNVAPRSKISPQT[Hyp]-NH2
modifications: disulfide 2-7 (inferred); ends not checked
B7: SEQ ID NO: 187 (peptide)
peptide: GCRTGTCTVQRLAHQIYQFTDKDKDNVAPRSKVGPQG[Hyp]-NH2
modifications: disulfide 2-7 (inferred); ends not checked
B8: SEQ ID NO: 184 (peptide)
peptide: GCRTGTCTVQRLAHQIYQFTDKFKDNVAPRSKISPQTW
B9: SEQ ID NO: 20 (peptide)
peptide: KCNTATCTVQRLAHQIYQFTDKDKDNVAPRTKVGSNG[Hyp]-NH2
modifications: disulfide 2-7 (inferred); ends not checked
B10: SEQ ID NO: 18 (peptide)
peptide: KCNFATCTVQRLAHQIYQFTDKDKDNVAPPTEVGSNGP
B11: SEQ ID NO: 178 (peptide)
peptide: GCRTGTCTVQRLAHQIYQFTDKDKDNVAPRTNVSPQG[Hyp]-NH2
modifications: disulfide 2-7 (inferred); ends not checked
B12: SEQ ID NO: 193 (peptide)
peptide: GCRTGTCTVQRLAHQIHQFTDKFKDNVAPRSKISPQT[Hyp]-NH2
modifications: disulfide 2-7 (inferred); ends not checked
B13: SEQ ID NO: 200 (peptide)
peptide: {C20 diacid-γGlu}-GCRFGTCTVQRLAHFLYQFTDKDKDNVAPRTNVGPQGY-NH2
modifications: disulfide 2-7 (inferred); ends not checked
B14: SEQ ID NO: 201 (peptide)
peptide: GCRTGTCTVQRLAHQIYQFTDKFKDNVAPRSKISPQH[Hyp]-NH2
modifications: disulfide 2-7 (inferred); ends not checked
B15: SEQ ID NO: 172 (peptide)
peptide: GCRTGTCTVQRLAHQIYQFTDKDKDNVAPRSNVSPNGY
B16: SEQ ID NO: 188 (peptide)
peptide: B15 peptide with S31T, V33I
B17: SEQ ID NO: 191 (peptide)
peptide: B15 peptide with V33I, S34G, N36Q
B18: SEQ ID NO: 182 (peptide)
peptide: B15 peptide with T4F, V33I, N36Q
B19: SEQ ID NO: 174 (peptide)
peptide: B15 peptide with T4F, N32K, N36Q
B20: SEQ ID NO: 177 (peptide)
peptide: B15 peptide with S34G
B21: SEQ ID NO: 190 (peptide)
peptide: B15 peptide with S31T, N32K, V33I
B22: SEQ ID NO: 183 (peptide)
peptide: B15 peptide with N36Q
B23: SEQ ID NO: 176 (peptide)
peptide: B15 peptide with S31T, N36Q
B24: SEQ ID NO: 199 (peptide)
peptide: B15 peptide with S31T, V33I, N36Q
B25: SEQ ID NO: 196 (peptide)
peptide: GCRTGTCTVQRLAHQIAQFTDKFKDNVAPRSKISPQT[Hyp]-NH2
modifications: disulfide 2-7 (inferred); ends not checked
B26: SEQ ID NO: 181 (peptide)
peptide: KCNTATCTVQRLAHQIYFTDKDKDNVAPPTNVGSNG[Hyp]-NH2
modifications: disulfide 2-7 (inferred); ends not checked
B27: SEQ ID NO: 197 (peptide)
peptide: GCRTGTCTVQRLAHQIYQFTDKDKDNVAPRTKISPNG[Hyp]-NH2
modifications: disulfide 2-7 (inferred); ends not checked
B28: SEQ ID NO: 180 (peptide)
peptide: KCNTATCATQRLANFLVHSSNNFGAILPSTKIGSNTY
B29: SEQ ID NO: 19 (peptide)
peptide: B28 peptide with S29R, I32V, T36G
B30: SEQ ID NO: 186 (peptide)
peptide: GCRTGTCTVQRLAHQIYQFTDKFKDNVAPRSKISPQY[Hyp]-NH2
modifications: disulfide 2-7 (inferred); ends not checked
B31: SEQ ID NO: 179 (peptide)
peptide: GCRTGTCTVQRLAHQIYQFTDKDKDNVAPRSKIGPQG[Hyp]-NH2
modifications: disulfide 2-7 (inferred); ends not checked
B32: SEQ ID NO: 189 (peptide)
peptide: GCRTGTCTVQRLAHQIYQFTDKDKDNVAPRTKISPQG[Hyp]-NH2
modifications: disulfide 2-7 (inferred); ends not checked
B33: SEQ ID NO: 194 (peptide)
peptide: KCRMGTCTVQRLAHQIYQFTDKDKDNVAPRSKISPQT[Hyp]-NH2
modifications: disulfide 2-7 (inferred); ends not checked

Numbering of substitutions follows the chain as printed. Numbered stars: 1 amine (or outer) side, 2 acyl side, 3 side chain; on linkers, the order of the positions; unused ones are H or OH. Bridge positions count the residues as written; N and C are the ends. Square brackets hold non-standard residues; d marks the D form. Ends that are not written are not given here. * marks the point of attachment. C20 diacid = O=C(O)CCCCCCCCCCCCCCCCCCC(=O)*; γGlu = O=C(O)[C@H](CCC(=O)[*:2])N[*:1]; Hyp = O=C(O)[C@@H]1C[C@@H](O)CN1

The target in the first assay is T1, hAMY3R (human, UniProt P30988).
T1 sequence 1: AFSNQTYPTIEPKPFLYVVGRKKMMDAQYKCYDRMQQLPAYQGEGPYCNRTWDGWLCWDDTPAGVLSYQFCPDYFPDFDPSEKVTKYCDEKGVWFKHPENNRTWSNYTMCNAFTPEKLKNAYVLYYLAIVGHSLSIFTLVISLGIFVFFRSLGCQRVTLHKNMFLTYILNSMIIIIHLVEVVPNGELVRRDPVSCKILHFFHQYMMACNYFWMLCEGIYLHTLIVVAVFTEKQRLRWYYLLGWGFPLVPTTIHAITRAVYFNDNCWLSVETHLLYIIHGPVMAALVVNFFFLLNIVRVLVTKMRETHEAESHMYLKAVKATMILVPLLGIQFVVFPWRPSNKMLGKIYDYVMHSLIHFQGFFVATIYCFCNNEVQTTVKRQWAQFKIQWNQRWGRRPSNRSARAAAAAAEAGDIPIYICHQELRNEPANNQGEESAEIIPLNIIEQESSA
T1 sequence 2: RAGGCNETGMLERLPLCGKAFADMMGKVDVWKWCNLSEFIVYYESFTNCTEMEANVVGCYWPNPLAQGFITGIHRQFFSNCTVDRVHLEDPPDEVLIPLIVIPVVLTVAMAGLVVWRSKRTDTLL
As to the kind of experiment: cell-based or functional assay.
For the molecule B1, the “hAMY3R EC50 (cAMP)” value was found to be 0.069 nM.
The same measure, in the same setting: the figure for B2 is 0.112 nM; for B3 it is 0.122 nM; for B4 it is 0.09 nM.
Take B5: the “hAMY3R EC50 (cAMP)” value amounted to 0.074 nM.
The same measure, in the same setting: the same measure for B6: 0.098 nM.
With B7, the “hAMY3R EC50 (cAMP)” value amounted to 0.093 nM.
Regarding B8, the “hAMY3R EC50 (cAMP)” value is 0.09 nM.
The same measure, in the same setting: the same measure for B9: 0.008 nM; for B10: 0.008 nM.
Regarding B11, the “hAMY3R EC50 (cAMP)” value was determined as 0.08 nM.
Take B12: the “hAMY3R EC50 (cAMP)” value worked out at 0.099 nM.
In the case of B13, the “hAMY3R EC50 (cAMP)” value was determined as 0.126 nM.
In the case of B14, the “hAMY3R EC50 (cAMP)” value turned out to be 0.126 nM.
On the same count and under the same terms, the same measure for B15: 0.066 nM; for B16: 0.094 nM.
Regarding B17, the “hAMY3R EC50 (cAMP)” value was found to be 0.098 nM.
Same read-out and setting: the figure for B18 is 0.085 nM; for B19 it is 0.071 nM; for B20 it is 0.077 nM.
Still for that read-out and setting: the same measure for B21: 0.097 nM.
For the molecule B22, the “hAMY3R EC50 (cAMP)” value was 0.088 nM.
On the same count and under the same terms, the same measure for B23: 0.076 nM; for B24: 0.124 nM; for B25: 0.114 nM.
On to B26, for which the “hAMY3R EC50 (cAMP)” value was 0.082 nM.
For B27, the “hAMY3R EC50 (cAMP)” value was 0.12 nM.
As for B28, the “hAMY3R EC50 (cAMP)” value was 0.082 nM.
On the same count and under the same terms, the same measure for B29: 0.008 nM; for B30: 0.091 nM; for B31: 0.082 nM.
Consider B32, for which the “hAMY3R EC50 (cAMP)” value worked out at 0.096 nM.
As to B33, the “hAMY3R EC50 (cAMP)” value is 0.112 nM.

For a further assay, the target named is hAM1R (human, UniProt Q16602). Briefly: cell-based or functional assay.
In the case of B1, the “hAM1R EC50 (cAMP)” value was above 5000 nM.
On to B2, for which the “hAM1R EC50 (cAMP)” value was above 5000 nM.
The same measure, in the same setting: the figure for B3 is 3960 nM; for B4 it is above 5000 nM.
In the case of B5, the “hAM1R EC50 (cAMP)” value came out at 2980 nM.
As to B6, the “hAM1R EC50 (cAMP)” value was above 5000 nM.
Take B7: the “hAM1R EC50 (cAMP)” value was found to be 2980 nM.
Regarding B8, the “hAM1R EC50 (cAMP)” value worked out at 4500 nM.
Same read-out and setting: the same measure for B9: above 5000 nM; for B10: 817 nM; for B11: 2980 nM.
Still for that read-out and setting: the figure for B12 is above 5000 nM; for B13 it is 38.2 nM; for B14 it is 4880 nM.
Same read-out and setting: the same measure for B15: 2980 nM; for B16: 47.6 nM; for B17: 2980 nM.
On to B18, for which the “hAM1R EC50 (cAMP)” value came to 100 nM.
For B19, the “hAM1R EC50 (cAMP)” value was 133 nM.
Regarding B20, the “hAM1R EC50 (cAMP)” value is 2980 nM.
As to B21, the “hAM1R EC50 (cAMP)” value was found to be 2980 nM.
Regarding B22, the “hAM1R EC50 (cAMP)” value is 2980 nM.
Same read-out and setting: the figure for B23 is 2980 nM.
Same read-out and setting: the same measure for B24: 2980 nM; for B25: above 5000 nM.
For the molecule B26, the “hAM1R EC50 (cAMP)” value is above 5000 nM.
As for B27, the “hAM1R EC50 (cAMP)” value was 2980 nM.
Same read-out and setting: the same measure for B28: above 5000 nM; for B29: above 5000 nM; for B30: above 5000 nM.
For the molecule B31, the “hAM1R EC50 (cAMP)” value is 2980 nM.
Same read-out and setting: the figure for B32 is 2980 nM; for B33 it is 3530 nM.
